Measurements: patent US20100273676A1 (GENERAL HOSPITAL, published 2010)
Ends that are not written are not given here. * marks the point of attachment. FITC = O=C1OC2(c3ccc(O)cc3Oc3cc(O)ccc32)c2ccc(NC(=S)*)cc21

How the values were obtained:
[1] = target: T1, GST-tagged CgGal11Ap KIX domain (amino acids 1-86) (C. glabrata, UniProt P08515 1-218 = GST); assay: fluorescence anisotropy/polarization, FITC peptide with increasing GST-CgGal11Ap KIX
[2] = target: T1, GST-tagged CgGal11Ap KIX domain (amino …); assay: fluorescence polarization, FITC peptide with increasing GST-CgGal11Ap KIX
[3] = target: T1, GST-tagged CgGal11Ap KIX domain (amino …); assay: fluorescence polarization, salt and pH adjusted
[4] = target: GST (glutathione S-transferase) (UniProt P08515 1-218 = GST); assay: fluorescence polarization
Sequence of GST (glutathione S-transferase) (P08515 whole entry): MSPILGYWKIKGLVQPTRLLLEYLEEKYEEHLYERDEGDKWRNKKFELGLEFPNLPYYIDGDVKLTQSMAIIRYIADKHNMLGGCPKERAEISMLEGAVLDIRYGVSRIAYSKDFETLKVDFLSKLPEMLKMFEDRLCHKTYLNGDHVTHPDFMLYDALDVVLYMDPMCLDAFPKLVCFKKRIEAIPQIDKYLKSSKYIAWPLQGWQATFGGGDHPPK

T1 sequence (P08515 whole entry, the tested form may be a part): as the sequence (P08515 whole entry) above

Binder	Kd [1]	Kd [2]	Kd [3]	binding result [4]
{FITC}-LYNSLWGDLFSDVYL (also called short Fluorescein-tagged CgPdr1pAD peptide) [Fluorescein-conjugated 15-amino acid CgPdr1pAD peptide (FITC-LYNSLWGDLFSDVYL)]	~210000 nM			
{FITC}-LGTLDEFVNKGDLNELYNSLWGDLFSDVYL (also called FITC-labled-CgPdr1pAD-30; Fluorescein-tagged CgPdr1pAD-30 peptide) [FITC-CgPdr1pAD-30 (FITC-LGTLDEFVNKGDLNELYNSLWGDLFSDVYL)]	~2000 nM	~780 nM	~700 nM	no binding
